Assay results as given in patent publication US20250154240A1, “ANTI-HUMAN CXCL1 ANTIBODY” (CHIOME BIOSCIENCE INC., priority 2022, published 2025).

T1: HuCXCL1 (Homo sapiens, UniProt P09341)
T1 construct: made in house; host or cells: Expi293 expression system (transient), protein from the culture supernatant
T1 sequence (P09341 35-107): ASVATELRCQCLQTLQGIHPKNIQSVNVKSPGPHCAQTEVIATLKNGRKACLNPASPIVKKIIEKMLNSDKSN


Columns and labels:
[1] = molecular target: T1, HuCXCL1; assay: HuCXCL1 binding activity, antigen-immobilized ELISA; details: HuCXCL1 immobilized at 3 μg/mL
Method: Antibodies produced from the hybridomas were evaluated for their HuCXCL1 binding activity by ELISA assay using plates on which the antigen (HuCXCL1 protein) used for immunization had been directly immobilized.
To 96-well plates, phosphate-buffered saline (PBS) containing 3 μg/mL of HuCXCL1 was added in a volume of 50 μL per well, and the plates were allowed to stand overnight at 4° C. After removal of the antigen solution, PBS containing 2% skimmed milk and 0.05% Tween-20 (hereinafter referred to as the blocking solution) was added to each well for blocking reaction, and the plates were allowed to stand at room temperature for 1 hour. After removal of the blocking solution, the culture supernatants of the hybridomas or DT40 were each added in a volume of 50 µL per well and reacted at room temperature for 1 hour. After removal of the culture supernatants and washing with PBS containing 0.05% Tween-20, an HRP-labeled secondary antibody diluted with the blocking solution was added and reacted at room temperature for 1 hour. After washing, TMB (Dako) was added as a chromogenic substrate solution to cause color development, and after 10 minutes, 1 N sulfuric acid was added to stop the reaction, followed by measurement of absorbance at 450 nm.

[2] = system: migration of HuCXCR2-expressing cells toward HuCXCL1; assay: Migration assay (Boyden chamber chemotaxis) of HuCXCR2-expressing cells toward HuCXCL1; assay type: cell-based, human; details: HuCXCL1 200 ng per ml in lower chamber
Method: The 80 clones with neutralizing activity against HuCXCL1 were evaluated for their inhibitory activity against the migration of HuCXCR2-expressing cells toward HuCXCL1.
Cell chemotaxis was measured by Boyden chamber assay, and QCM Chemoraxis Cell Migration Assay (Sigma-Aldrich Corporation) was purchased and used as an assay kit. AequoScrenn/CXCR2 cells were used as HuCXCR2-expressing cells. An isotype control antibody and a goat anti-HuCXCL1 polyclonal antibody (hereinafter referred to as AF275) were purchased from R&D Systems and used.
The HuCXCR2-expressing cells were cultured overnight at 37° C. in a serum-free culture medium, and then suspended in the assay buffer and adjusted to 2×10^6 cells per ml. The upper chamber of a Boyden chamber was filled with the HuCXCR2-expressing cell suspension, while the lower chamber was filled with the assay buffer alone or a solution containing HuCXCL1 in an amount of 200 ng per ml with or without a purified antibody, followed by incubation overnight at 37° C.
After incubation, the upper chamber was washed with PBS, placed into a new lower chamber containing a Cell Detachment Solution (Sigma-Aldrich Corporation), and then allowed to stand at 37° C. for 30 minutes to detach the migrated cells adhered to the bottom of the membrane in the upper chamber.
The migrated cell suspension was supplemented with 4× Lysis Buffer (Sigma-Aldrich Corporation) in a volume of 75 μL per well and allowed to stand at room temperature for 20 minutes, followed by measurement of fluorescence at an excitation wavelength of 480 nm and a fluorescence wavelength of 520 nm. The above about 80 clones were screened and evaluated for their inhibitory activity against the migration of CXCR2 cells.

[3] = system: OCUM-12 gastric cancer cell line; assay: Antitumor activity test, model with OCUM-12 orthotopic transplantation (prevention model); assay type: in vivo, mouse; details: for Antitumor activity (tumor growth, tumor size): 20 mg/kg intraperitoneally twice a week from the day following transplantation
Method: A model with OCUM-12 orthotopic transplantation was prepared to evaluate the above 4 types of candidate antibodies for their in vivo CXCR2 migration inhibitory activity and antitumor activity in a xenograft model with OCUM-12 orthotopic transplantation.
For use as mice, female nude mice (BALB/cAJcl-nu/nu) at 5 to 6 weeks of age were purchased from CLEA Japan, Inc., Japan. For use as human cancer cells, a gastric cancer cell line, OCUM-12, was provided by University Public Corporation Osaka, Japan.
OCUM-12 cells were cultured in D-MED medium (FUJIFILM Wako Pure Chemical Corporation, Japan) supplemented with 10% fetal bovine serum (FBS; Sigma-Aldrich Corporation) and 1/100 volumes of a penicillin-streptomycin mixture (Nacalai Tesque, Inc., Japan). The cells to be transplanted were detached with 0.25% trypsin/0.02% EDTA (Thermo Fisher Scientific) and washed with PBS, and 4× 10^5 cells per mouse were transplanted into the gastric wall of each mouse.
On the day following the above transplantation, the mice were randomized into groups (8 or 6 mice per group) and intraperitoneally administered with PBS as a control and with 4 types of candidate antibodies (1A-7H10, 4A-2F7, 5A-5E11 and 028-8-12) and 3 types of non-candidate antibodies (1A-3C6, 1A-2H3 and 4A-5B11) at a dose of 20 mg/kg. In addition, mouse IgG1 as a control was intraperitoneally administered at a dose of 20 mg/kg, and 3 types of antibodies (5A-5E11, 1A-4H10 and 4A-7G7) among the candidate antibodies were intraperitoneally administered at a dose of 20 mg/kg. The administration of these antibodies was then continued with a frequency of twice a week until the completion of the test. After 3 weeks had passed from the transplantation, the mice were sacrificed, and the short- and long-axis diameters of tumors formed in their gastric walls were each measured with a caliper. The tumor size was calculated according to the following: 1/2 short-axis diameter (mm)×1/2 long-axis diameter (mm)×3.14.
Navarixin is among small molecular compounds that act on CXCR2 and inhibit CXCL1-CXCR2 signaling. […] Then, using a model with OCUM-12 orthotopic transplantation, the migration inhibition of CXCR2-expressing cells and antitumor activity were evaluated in vivo for Navarixin. As a vehicle, ultrapure water containing 20% 2-hydroxypropyl-β-cyclodextrin (FUJIFILM Wako Pure Chemical Corporation, Japan) was used. Navarixin (MedChemExpress) was dissolved in ultrapure water containing 20% 2-hydroxypropyl-β-cyclodextrin, and orally administered at a dose of 100 mg/kg/day in a schedule of once a day for 5 consecutive days, followed by a 2-day withdrawal.
The humanized antibodies were evaluated for their in vivo antitumor activity and CXCR2 migration inhibitory activity in a xenograft model with OCUM-12 orthotopic transplantation. Procedures for the evaluation are shown below.
For use as mice, female nude mice (BALB/cAJcl-nu/nu) at 5 to 6 weeks of age were purchased from CLEA Japan, Inc., Japan. For use as human cancer cells, gastric cancer cell line, OCUM-12, was provided by Osaka Metropolitan University, Japan.
OCUM-12 cells were cultured in D-MED medium (FUJIFILM Wako Pure Chemical Corporation, Japan) supplemented with 10% fetal bovine serum (hereinafter abbreviated as FBS; Sigma-Aldrich Corporation) and 1/100 volumes of a penicillin-streptomycin mixture (Nacalai Tesque, Inc., Japan). The cells to be transplanted were detached with 0.25% trypsin/0.02% EDTA (Thermo Fisher Scientific) and washed with PBS, and 4×10^5 cells per mouse were transplanted into the gastric wall of each mouse. On the day following the transplantation, the mice were randomized into groups (8 mice per group) and intraperitoneally administered with test antibodies at a dose of 400 μg/head. PBS was intraperitoneally administered in a volume of 200 μL with a frequency of twice a week for 3 weeks, starting from the day following the transplantation. […]

Row | Molecule | Binding activity to HuCXCL1 ELISA [1] | CXCR2-expressing cell migration inhibitory activity Chemotaxis assay [2] | Antitumor activity (tumor growth, tumor size) ([3]; 3 weeks, compared to PBS) | Antitumor activity (tumor area) ([3]; 400 μg/head intraperitoneally twice a week, 3 weeks, compared to hIgG1 antibody) | Dose significantly suppressing the tumor area ([3]; prevention model, compared to PBS) [μg/head]
1 | 1A-7H10: mouse monoclonal anti-HuCXCL1 antibody clone; VH SEQ ID NO: 1, VL SEQ ID NO: 5 (antibody, listed as Mus musculus, V domains shown) VH: QVQLKESGPVLVAPSQSLSITCSVSGFSSTTYGVHWVRQPPGQGLEWLGVIWAGGSTNYNSALMSRLSISKDNSKSQVFLKMNSLQTDDTAMYYCATQYHYPFAYWGQGTLVTVSA VL: NIVMTQSPKSMSMSVGERVTLSCKASENVGIYVSWYQQKPEQSPKLMIYGASNRNTGVPDRFTGSGSATDFTLTISSVQAEDLADYYCGQSYSYPLTFGAGTKLELK | ∘ | ∘ | significantly suppress tumor growth | – | –
2 | Hu5A-5E11: humanized antibody VH1/VL1; VH SEQ ID NO: 76, VL SEQ ID NO: 78 (antibody, V domains shown) VH: QVQLVQSGAEVKKPGSSVKVSCKASGYAFSDYWMNWVRQAPGQGLEWIGQIYPGSGDTNYNAKFKGKGTITADKSTSTAYMELSSLRSEDTAVYYCARERDYDVAMDYWGQGTTVTVSS VL: DIQMTQSPSSLSASVGDRVTITCKASQDINKYIAWFQQKPGKAPKLVIHYTSILQPGVPSRFSGSGSGTDYTFTISSLQPEDIATYYCLQYDNLPWTFGGGTKVEIK | – | – | – | significantly suppress an increase in the tumor area | ≥ 60

Second part, led by results:

Row | Binding activity to HuCXCL1 ELISA [1] | Molecule | CXCR2-expressing cell migration inhibitory activity Chemotaxis assay [2] | Antitumor activity (tumor growth, tumor size) ([3]; 3 weeks, compared to PBS) | Antitumor activity (tumor area) ([3]; 400 μg/head intraperitoneally twice a week, 3 weeks, compared to hIgG1 antibody) | Dose significantly suppressing the tumor area ([3]; prevention model, compared to PBS) [μg/head]
3 | ∘ | 4A-2F7: mouse monoclonal anti-HuCXCL1 antibody clone; VH SEQ ID NO: 9, VL SEQ ID NO: 13 (antibody, listed as Mus musculus, V domains shown) VH: QVTLKESGPGILKPSQTLSLTCSFSGFSLSTSGMGVDWIRQPSGKGLEWLAHIWWDDDKYYNPSLKSQLTISKDTSRNQVFLKITSVDTADTATYYCARSYGYDMDYYAMDYWGQGTSVTVSS VL: DIQMTQSPSSLSASLGERVSLTCRASQEISGYLSWLQQKPDGTIKRLIYAASTLDSGVPKRFSGSRSGSDYSLTISSLESEDFADYYCLQYASYPPWTFGGGTKLEIK | ∘ | significantly suppress tumor growth | – | –
4 | ∘ | 5A-5E11: mouse monoclonal anti-HuCXCL1 antibody clone; VH SEQ ID NO: 17, VL SEQ ID NO: 21 (antibody, listed as Mus musculus, V domains shown) VH: QVQLQQSGAELVRPGSSVKISCKASGYAFSDYWMNWVKQRPGQGLEWIGQIYPGDGDTNYNGKFKGKGTLTADKSSSTAYMQLNSLTSEDSAVYFCARERDYDVAMDYWGQGTSVTVSS VL: DIQMTQSPSSLSASLGGKVTITCKASQDINKYIAWFQHKPGKGPRLVIHYTSILQPGIPSRFSGVGSGRDYSFSIRNLEPEDIATYYCLQYDNLPWTFGGGTKLEIK | ∘ | significantly suppress tumor growth | – | –
5 | ∘ | 028-8-12: human antibody against CXCL1 from the human ADLib technique; VH SEQ ID NO: 25, VL SEQ ID NO: 29 (antibody, listed as Gallus gallus, V domains shown) VH: EVQLLESGGGLVQPGGSLRLSCAASGFTFSELSMSWVRQAPGKGLEWVSAISGSGGSTYYADSVKGRFTISRDNSKNTLYLQMNSLRAEDTAVYYCAREGGRLEPYYYYYAMDVWGQGTPVTVSS VL: DIQMTQSPSSLSASVGDRVTITCRASQSISDNLHWYQQKPGKAPKLLIYDASNLESGVPSRFSGSGSGTDFTLTINSLQPEDFATYYCQQYYSTPLTFGQGTKLEIK | ∘ | significantly suppress tumor growth | – | –
